Patent publication US20230151340A1, “PLASTIC DEGRADING FUSION PROTEINS AND METHODS OF USING THE SAME” (Alliance for Sustainable Energy, LLC, priority 2020, published 2023)

Key:
[1] = substrate: O=C(O)c1ccc(C(=O)OCCO)cc1; experiment: Michaelis-Menten kinetics of MHETase and variants (substrate inhibition model); type: biochemical, Comamonas thiooxydans; details: other: MHET 10-250 μM, 5 nM enzyme, pH 7.5, 30° C.
[2] = substrate: O=C(O)c1ccc(C(=O)OCCO)cc1; experiment: purified protein, by the assay type; details: other: MHET 10-250 μM, 5 nM enzyme, pH 7.5, 30° C., substrate inhibition model

Row | Protein | Km [1] [µM] | Vmax [1] [µM/min] | kcat/Km [1] [M⁻¹ s⁻¹] | Km [2] [µM]
1 | Comamonas thiooxydans MHETase (putative MHETase, Genbank WP_080747404.1), C-terminal His tag (Comamonas thiooxydans) (protein) HMFVRNADRAKNCMRAPLRVFPLKDTFSAQCANVSVWITSSVPPLRERHMDRRVTRRDLMQTRILLMLIAATGVAACGGDGGSTPAAQNPPLPLASRAACEAFQGNSNSIAWPHRATVVEVATWHEAEPANATAAATPEHCEISGAIARRTGIDGYPYEIKFRLRMPSEWNGRFFMEGGGGTNGSLSAATGSLGGGQTASALSRNFATIATDGGHDNAVNNNPDALGTVAFGMDPQARIDMGYNSYDQVTQAGKAAVAQFYGRAPDKSYFIGCSEGGREGMMLSQRFPSHYDGIVAGAPGYQLPKAGISGAWTTQSLAPAAVGVDAQNVPLINKAFSDVDLHLLSRGILGTCDALDGLSDGIVNDFRACQAAFDPATALNPDTSQPLQCTGAKTPDCLSAAQVTGIKRAMGGPVDSAGAALYNRWAWDPGMSGLNGTSYNQGWRSWWLGSYASSTNNAQRVNGFSARSWLVDFATPPEPMPVTQVAARMMNFNFDTDPPKIRATSGPFTPSSMEWHGATSTNLAAFRDRGGKLMLYHGMSDAAFSALDTADYYERLGAAMPGAAGFARLFLVPGMNHCSGGPGTDRFDMLTPLVAWVERDKAPDQVSAWAGTPGYFGATARTRPLCPYPQIARYKGSGDINAEASFVCVAPLE | 174.70 ± 4.75 | 12.2 | 230000 | –
2 | Ideonella sakaiensis 201-F6 MHETase (Is MHETase), wild type, Genbank GAP38911.1, C-terminal His tag (DNA SEQ ID NO: 1) (Pseudideonella sakaiensis) (protein) CAGGGSTPLPLPQQQPPQQEPPPPPVPLASRAACEALKDGNGDMVWPNAATVVEVAAWRDAAPATASAAALPEHCEVSGAIAKRTGIDGYPYEIKFRLRMPAEWNGRFFMEGGSGTNGSLSAATGSIGGGQIASALSRNFATIATDGGHDNAVNDNPDALGTVAFGLDPQARLDMGYNSYDQVTQAGKAAVARFYGRAADKSYFIGCSEGGREGMMLSQRFPSHYDGIVAGAPGYQLPKAGISGAWTTQSLAPAAVGLDAQGVPLINKSFSDADLHLLSQAILGTCDALDGLADGIVDNYRACQAAFDPATAANPANGQALQCVGAKTADCLSPVQVTAIKRAMAGPVNSAGTPLYNRWAWDAGMSGLSGTTYNQGWRSWWLGSFNSSANNAQRVSGFSARSWLVDFATPPEPMPMTQVAARMMKFDFDIDPLKIWATSGQFTQSSMDWHGATSTDLAAFRDRGGKMILYHGMSDAAFSALDTADYYERLGAAMPGAAGFARLFLVPGMNHCSGGPGTDRFDMLTPLVAWVERGEAPDQISAWSGTPGYFGVAARTRPLCPYPQIARYKGSGDINTEANFACAAPP | – | – | – | 23.17 ± 1.65
